From US20200262895A1 (Biogen, published 2020)

How the values were obtained:
[1] = target: T1, recombinant human tau, isoform Tau-F of 441 aa (hTau40) (human, UniProt P10636 1-758); assay: direct ELISA on coated recombinant tau (rTau)
T1 construct: Bought from rPeptide (Bogart, GA, USA); coated on ELISA plates, blotted, or spotted as overlapping peptides; also called full-length tau; rTau

[2] = target: T1, recombinant human tau, isoform Tau-F of …; assay: ELISA on recombinant Tau, absorbance at 450 nm

T1 sequence (P10636 other isoform, or with tags, fused parts or gaps limits assumed): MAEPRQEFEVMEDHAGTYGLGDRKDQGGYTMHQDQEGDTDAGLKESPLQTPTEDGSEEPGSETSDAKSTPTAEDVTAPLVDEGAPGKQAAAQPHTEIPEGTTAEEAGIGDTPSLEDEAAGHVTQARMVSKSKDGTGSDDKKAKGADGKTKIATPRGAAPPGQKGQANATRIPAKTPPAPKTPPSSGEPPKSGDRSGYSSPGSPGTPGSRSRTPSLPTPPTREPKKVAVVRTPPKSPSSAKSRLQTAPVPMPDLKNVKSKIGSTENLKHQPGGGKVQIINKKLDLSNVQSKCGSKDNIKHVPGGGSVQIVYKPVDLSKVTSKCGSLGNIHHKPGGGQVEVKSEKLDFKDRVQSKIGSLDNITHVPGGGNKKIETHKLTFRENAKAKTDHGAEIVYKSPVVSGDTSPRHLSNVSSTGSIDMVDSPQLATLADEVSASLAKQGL

Binder | EC50 [1] [nM] | EC50 (read off the curve) [2] [µg/mL]
chimeric NI-105.17C1 (ch17C1), mouse IgG2a/lambda (antibody, V domains shown, N-glycan on Asn-31 (CDR1), fully occupied on CHO expression, also called ch17C1-mIgG2a) VH: EVQLVQSGAEVKKPGESLKISCKAFGYSFTNFWIGWVRQVPGKGLEWVGIIYPGDSDTRYSPSFQGQVTISADKSIDTAYLQWGHLKASDSAMYFCARRGFWTGSQIEYWGQGTQVTVSS VL: QSALTQPPSASGSPGHSVTISCTGTSSDVGNYSFVSWYQQYPGKAPKIIIYDVSKRSSGVPDRFFGSKSANTASLTVSGVQEEDEADYFCSSYGGSKYPWVFGGGTKLTVLG |  | ~0.8
recombinant human antibody NI-105.19C6 (germlined) (antibody, human IgG1, V domains shown, Complete recombinant human IgG1 by the methods) VH: EVQLVQSGAEVKKPGESLKISCKASGYSFISYWVGWVRQMPGKGLEWMGIIYPGDSDTRYSPSFEGQVSISADKSISTAYLQWTSLKASDTAMYYCARHWGPAAVTDSPWFGPWGQGTLVTVSS VL: not shown | 4 | 
recombinant human antibody NI-105.9C4 (germlined) (antibody, human IgG1, V domains shown, Complete human IgG1 by the methods) VH: QVQLVQSGAEVKKPGASVKVSCKASGYIFTAFFMHWVRQAPGQGLEWMGWINPDSGATKYAHNFQGRVTMTRDTSISTAFMELSGLKSDDTGVYYCATGMAVTGNFWGQGTLVTVSS VL: SYELTQPPSVSVSPGQTARITCSGDVLAETYARWFQQKPGQAPVLVMYRDRERPAGIPERFSGSSSGNTVTLTISGAQAEDEAVYHCHSVADNNLDWVFGGGTKLTVL | 5.2 | 
recombinant human antibody NI-105.12E12 (germlined) (antibody, human IgG1, V domains shown, Complete recombinant human IgG1 by the methods) VH: EVQLVESGGGLVQPGGSLKLSCAASGFSFSDSAFHWARQASGKGLEWVGRIRSKGNNYATAYAASVKGRFTVSRDDSKNTTYLQMNSLKTDDTAIYYCTRQGPSYGGINWGLGTLVTVSS VL: not shown | 28.6 | 
recombinant human antibody NI-105.6L9 (germlined) (antibody, human IgG1, V domains shown, Complete recombinant human IgG1 by the methods) VH: EVQLVESGGGLVQPGGSLRLSCAGTRFTFSTYAMGWVRQAPGRGLEWVSAIGGSGDSTSYADSVKGRFTISRDNSKNTLYLQMNSLRAEDTAVYYCAKGVYDYLWGSYRLFDYWGQGTLVTVSS VL: SYVLTQPPSVSVAPGQTARFTCGGNNIASKSVHWYQQKPGQAPVLVVYDDSDRPSRIPERFSGSNSGNTATLTISRVEAGDEADYYCQVWDSTSDHVVFGGGTKLTVL | 2.5 | 
recombinant human antibody NI-105.22E1 (germlined) (antibody, human IgG1, V domains shown, Complete recombinant human IgG1 by the methods) VH: EVQLVQSGAEVKKPGESLKISCKGSGYRFTTYWIGWVRQMPGKGLEWMGIIYPGDSDTRYSPSYQGQVTISADKSISTAYLQWSSLKASDTGMYYCARVAGDIGYENYYYYGMDVWGQGTTVTVSS VL: not shown | 1.1 | 
recombinant human antibody NI-105.14E2 (germlined) (antibody, human IgG1, V domains shown, Complete recombinant human IgG1 by the methods) VH: EVQLVQSGAEVKKPGDSLRISCKASGYNFPNYWIGWVRQMPGKGLEWMGIIYPGDSDIRYSPSFQGHVTISSDKSITTAYLQWTSLKVADSAMYYCARVERPDKGGWFGPWGQGTLVTVSS VL: DIVMTQSPDSLAVSLGERATINCKSSQTLLYTSNNQNYLAWYQHKPGQPPKVLIYWASTREYGVPDRFSGSGSGTDFTLTISSLQPEDVAVYYCQQYYNSPYTFGQGTKLEIK | 0.65 | 

Further lines, results first:

EC50 [1] [nM] | EC50 (read off the curve) [2] [µg/mL] | Binder
0.7 |  | recombinant human antibody NI-105.39E2 (germlined) (antibody, human IgG1, V domains shown, Complete recombinant human IgG1 by the methods) VH: EVQLVESGGGLVQPGGSLRLSCAASGFTFSAYGMNWVRQAPGKGLEWVAHITGSGTPIFYADSVKGRFTISRDNAKSSLYLQMNSLRNDDTALYFCVRGTVDYWGQGTLVTVSS VL: QAGLTQPPSVSKDLRQTATLTCSGNSNNVGNQGAAWLQQFPGHPPKLLFYENINRPSGISERFSASRSGNTASLTITGLQPEDEADYYCSAWDGHLNAWVFGGGTKLTVL
2.9 |  | recombinant human antibody NI-105.26B12 (germlined) (antibody, human IgG1, V domains shown, Complete recombinant human IgG1 by the methods) VH: QVQLVESGGGVVQPGRSLRLSCAASGFTFTRYGMHWVRQAPGKGLEWVAVIWYDGTNKYYADSLQGRFTISRDTSTNTLYLQMNGLRVEDRAVYYCAREGFQGAIDYWGQGTLVTVSS VL: not shown
0.18 |  | recombinant human antibody NI-105.60E7 (germlined) (antibody, human IgG1, V domains shown, Complete recombinant human IgG1 by the methods) VH: EVQLVESGGGFVRPGGSITLSCATSGFTFTKAWMTWVRQAPVKGLEWIGHIKTRIEGATTDYAAPVEGRFTISRDDSKNMVYLQMNSLKTEDSGIYYCSTDFDYWGQGTLVTVSS VL: DVVMTQSPLSLPVTLGQPASISCTSSQSLLYSDGNTYLNWFQQRPGQSPRRLMYKVSKRDPGVPDRFSGSGSGTDFTLSISRVEAEDVGVYYCMQGSLWPRYTFGQGTKVEIK
